According to patent US20260055210A1 (MONTEFIORE MEDICAL CENTER, published 2026):

Target: T1, Human IgG1 Fc (human, UniProt P01857-1 100-330 = IgG part, limits assumed)
T1 construct: domain: Fc; Negative control; also called human IgG1 Fc domain
Test: flow cytometry, percent of bound cells, cMPL-expressing HEK293 cells
Description: To study the binding capabilities of the fusion polypeptide provided herein to thrombopoietin receptors, the fusion polypeptides were contacted with cells expressing thrombopoietin receptor cMPL. Mouse or human thrombopoietin receptor cMPL was expressed on the surface of Freestyle™ HEK293 cell line. Mouse or human thrombopoietin receptor cMPL were expressed as a fusion polypeptide with either GPF or mCherry. Expression of cMPL receptors was confirmed by measuring fluorescent signal. As a general control, PD1 protein binding to PDL1-expressing cells was used. Human IgG1 Fc and secondary antibody were used as a negative control since they would not be expected to bind to cMPL. […] The cMPL expressing cells were treated with Nplate (Romiplostim) as the positive control. FLT3L-romiplostim fusion polypeptide with a His-Tag, FLT3L-romiplostim fusion polypeptide without a His-Tag were tested. Binding was analyzed using a fluorescent secondary antibody against IgG1 domain of the polypeptide. The percentages of cells bound to the tested polypeptide were quantified.

binding result	Binder
no binding	human thrombopoietin receptor cMPL expressed on the surface of Freestyle HEK293 cells (receptor, UniProt P40238 26-635, looked up, whole, on cells; also called human cMPL; human cMLP; not shown: Fused with either GFP (printed 'GPF') or mCherry) QDVSLLASDSEPLKCFSRTFEDLTCFWDEEEAAPSGTYQLLYAYPREKPRACPLSSQSMPHFGTRYVCQFPDQEEVRLFFPLHLWVKNVFLNQTRTQRVLFVDSVGLPAPPSIIKAMGGSQPGELQISWEEPAPEISDFLRYELRYGPRDPKNSTGPTVIQLIATETCCPALQRPHSASALDQSPCAQPTMPWQDGPKQTSPSREASALTAEGGSCLISGLQPGNSYWLQLRSEPDGISLGGSWGSWSLPVTVDLPGDAVALGLQCFTLDLKNVTCQWQQQDHASSQGFFYHSRARCCPRDRYPIWENCEEEEKTNPGLQTPQFSRCHFKSRNDSIIHILVEVTTAPGTVHSYLGSPFWIHQAVRLPTPNLHWREISSGHLELEWQHPSSWAAQETCYQLRYTGEGHQDWKVLEPPLGARGGTLELRPRSRYRLQLRARLNGPTYQGPWSSWSDPTRVETATETAWISLVTALHLVLGLSAVLGLLLLRWQFPAHYRRLRHALWPSLPDLHRVLGQYLRDTAALSPPKATVSDTCEEVEPSLLEILPKSSERTPLPLCSSQAQMDYRRLQPSCLGTMPLSVCPPMAESGSCCTTHIANHSYLPLSYWQQP
no binding	mouse thrombopoietin receptor cMPL expressed on the surface of Freestyle HEK293 cells (receptor, UniProt Q08351 26-625, looked up, whole, on cells; also called mouse cMPL; mouse cMLP; not shown: Fused with either GFP (printed 'GPF') or mCherry) QDVFLLALGTEPLNCFSQTFEDLTCFWDEEEAAPSGTYQLLYAYRGEKPRACPLYSQSVPTFGTRYVCQFPAQDEVRLFFPLHLWVKNVSLNQTLIQRVLFVDSVGLPAPPRVIKARGGSQPGELQIHWEAPAPEISDFLRHELRYGPTDSSNATAPSVIQLLSTETCCPTLWMPNPVPVLDQPPCVHPTASQPHGPAPFLTVKGGSCLVSGLQAGKSYWLQLRSQPDGVSLRGSWGPWSFPVTVDLPGDAVTIGLQCFTLDLKMVTCQWQQQDRTSSQGFFRHSRTRCCPTDRDPTWEKCEEEEPRPGSQPALVSRCHFKSRNDSVIHILVEVTTAQGAVHSYLGSPFWIHQAVLLPTPSLHWREVSSGRLELEWQHQSSWAAQETCYQLRYTGEGREDWKVLEPSLGARGGTLELRPRARYSLQLRARLNGPTYQGPWSAWSPPARVSTGSETAWITLVTALLLVLSLSALLGLLLLKWQFPAHYRRLRHALWPSLPDLHRVLGQYLRDTAALSPSKATVTDSCEEVEPSLLEILPKSSESTPLPLCPSQPQMDYRGLQPCLRTMPLSVCPPMAETGSCCTTHIANHSYLPLSYWQQP
